Bridges are numbered along the chain shown (N, C = ends). Where no end group is shown, it is not given here. The star is where a group is joined. Biotin = O=C1N[C@H]2[C@H](CS[C@H]2CCCCC(=O)*)N1
Columns and labels:
[1] = target: T1, human serum albumin (human, UniProt P02768 25-609); assay: phage ELISA: phage-displayed clone on HSA-coated control wells (right bar of each pair), read at 450 nm
T1 construct: also called HSA

[2] = target: T1, human serum albumin; assay: phage ELISA for specificity: 50 ng of each protein coated per well, absorbance at 450 nm; six bars per clone in the order of the legend: VEGFR2, human IgG, monoclonal antibody, enzyme, HSA, blocked well
Method: (§1) ELISAs were then performed to screen for modified WW domain peptides that bind to the target ligand. NUNC Maxisorp plates were coated with 50 ng per well of VEGFR2 in PBS overnight at 4° C. After blocking the plates with PBS, 2% BSA, 0.1% Tween-20, phage displaying the selected clones were added, diluted in blocking buffer, and incubated for 1 hour. WW domain binders were detected using horseradish peroxidase-conjugated anti-M13 antibody (GE) and SureBlue TMB peroxidase substrate (Insight Biotechnology, Middlesex, UK); and the ELISA signal was read at 450 nm.
The specificity of clones selected for binding to VEGFR2 was assayed in an ELISA against a selection of non-target peptides/proteins, as described above. 50 ng of each of the different target and non-target proteins was coated per well of and ELISA plate and each of the modified WW domain peptides was added.

[3] = target: T2, VEGFR2-Fc fusion; assay: phage ELISA: phage-displayed clone on wells coated with 50 ng VEGFR2, anti-M13-HRP, absorbance at 450 nm; control: uncoated blocked wells (light bars)
T2 construct: Bought from R&D Systems
Method: as §1

[4] = target: T2, VEGFR2-Fc fusion; assay: competition ELISA: inhibition of VEGFR2 binding to coated VEGF by WW-B1-MBP
Method: A competition assay was carried out in which binding of VEGFR2 to VEGF-A (VEGF) was competed by the presence of varying amounts of the selected modified WW domain peptide.
50 ng human VEGF (R&D Systems, Abingdon, UK) 1 μg/ml in PBS was coated per well onto a Maxisorp plate at 37° C. for 140 minutes. The wells were then blocked with 100 μl PBS containing 2% BSA for 55 minutes at room temperature. 1.25 ng VEGFR2 was preincubated with WW-B1 fused to maltose binding protein (MBP) in 50 μl PBS for 45 minutes at room temperature. The activity of the WW-B1 peptide was tested at serial dilutions from 10 μM to 156.25 nM. 50 μl 4% BSA in PBS was added to the preincubated VEGFR2 with WW-B1-MBP and the whole mixture was then added to the VEGF coated ELISA plate and incubated at room temperature for 55 minutes. The plate was then washed with 3 washes in PBS-Tween and 2 washes in PBS. Next 50 μl/well penta His-HRP (QIAgen, diluted 1:500 in 2% BSA in PBS) was added and the mixture incubated at room temperature for 55 minutes, before washing as before. ELISA signals were detected using SureBlue TMB peroxidase substrate (Insight biotechnology, Middlesex, UK) at 450 nm.
As a control, the above process was repeated with wild-type Pin1 WW domain peptide replacing WW-B1. The results are illustrated in FIG. 6.

[5] = target: T3, Human β-NGF (human, UniProt P01138 123-240, limits assumed); assay: phage ELISA: phage-displayed clone on NGF-coated wells (left bar of each pair), read at 450 nm; control: HSA-coated wells (right bar)
T3 construct: R&D Systems; It was biotinylated via carboxyl groups for the selection
T3 sequence (P01138 123-240 limits assumed): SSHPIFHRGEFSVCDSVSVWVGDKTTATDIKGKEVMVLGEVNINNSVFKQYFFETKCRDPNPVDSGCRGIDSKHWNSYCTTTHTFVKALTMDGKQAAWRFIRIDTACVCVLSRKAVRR

[6] = target: T2, VEGFR2-Fc fusion; assay: biolayer interferometry (Octet Red), biotinylated WW-B1 on streptavidin sensors, VEGFR2-Fc 1 to 100 nM, steady state analysis
Method: Real time binding assays between chemically synthesised clone WW-B1 and VEGFR2-Fc fusion were performed using biolayer interferometry with an Octet Red system (Fortebio, Menlo Park, Calif.). Biotinylated WW-B1 was immobilised to streptavidin biosensors (Fortebio) at a concentration of 50 ng/μl in PBS. Association curves were then detected by incubating WW-B1-coated sensors with different concentrations of VEGFR2 (1 to 100 nM in PBS), and dissociations were detected by incubating the sensors in PBS. The dissociation constant for WW-B1 binding to VEGFR2 was determined by steady state analysis to be 44 nM±1.1 nM (FIG. 5).

[7] = target: T2, VEGFR2-Fc fusion; assay: biolayer interferometry (Octet Red), peptide on streptavidin sensors, steady state analysis; cyclised WW-B1, steady state analysis
Method: Real-time binding assays between the peptides and VEGFR2-Fc fusion were performed using biolayer interferometry with an Octet Red system (Fortebio, Menlo Park, Calif.). WW peptides were immobilised on streptavidin biosensors (Fortebio) at a concentration of 2 μg/ml in kinetic buffer. Association curves were then detected by incubating the immobilised peptide with […] (1 to 100 nM in kinetic buffer), and dissociations were detected by incubating the sensors in kinetic buffer. All of the peptides from the affinity maturation, bind to VEGFR2 with a similar affinity as WW-B1.
The dissociation constant for cyclised WW-B1 binding to VEGFR2 was determined by steady state analysis to be 31 nM±4.8 nM (FIG. 12).

T1 sequence (P02768 25-609 limits assumed): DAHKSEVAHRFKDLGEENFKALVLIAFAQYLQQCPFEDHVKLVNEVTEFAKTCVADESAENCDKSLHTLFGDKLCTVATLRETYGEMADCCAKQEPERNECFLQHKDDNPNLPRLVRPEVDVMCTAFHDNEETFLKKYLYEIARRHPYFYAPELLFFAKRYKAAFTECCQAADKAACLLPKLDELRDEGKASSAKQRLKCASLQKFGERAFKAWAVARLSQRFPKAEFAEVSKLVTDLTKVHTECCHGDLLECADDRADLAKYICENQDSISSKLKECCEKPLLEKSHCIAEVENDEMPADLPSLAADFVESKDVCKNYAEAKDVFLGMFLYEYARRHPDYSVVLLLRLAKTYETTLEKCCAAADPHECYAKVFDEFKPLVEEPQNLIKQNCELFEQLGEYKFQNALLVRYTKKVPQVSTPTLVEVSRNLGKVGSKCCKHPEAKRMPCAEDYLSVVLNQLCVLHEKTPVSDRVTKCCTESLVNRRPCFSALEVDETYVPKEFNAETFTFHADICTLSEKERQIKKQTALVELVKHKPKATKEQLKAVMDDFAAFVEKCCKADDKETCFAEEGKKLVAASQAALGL

Question: Does MADEEKLPPGWGKPWSARGRVTYINLITVAEQWERPS (designed binder) [NP-E3] bind [1]?
Answer: Result: no binding

Question: Does MADEEKLPPGWGKGWSPRGRVWYTNRTTVAAQWERPSG (designed binder, not shown: large carriers, also: fused to gpIII (M13 phage display), linker not given here) [clone H4, phage-displayed modified Pin1 WW domain peptide] bind [2]?
Answer: Result: no binding

Question: Does MADEEKLPPGWGKGWSPRGRVWYTNRTTVAAQWERPSG (designed binder, not shown: large carriers, also: fused to gpIII (M13 phage display), linker not given here) [clone H4, phage-displayed modified Pin1 WW domain peptide] bind [3]?
Answer: Result: binds

Question: Does MADEEKLPPGWYKMWSSPGRVLYVNDITHAHRWERPSG (designed binder, not shown: large carriers, also: fused to gpIII (M13 phage display), linker not given here, also called WW-B1) [clones B1 and H1, phage-displayed modified Pin1 WW domain peptide] bind [2]?
Answer: Result: no binding

Question: With MADEEKLPPGWYKMWSSPGRVLYVNDITHAHRWERPSG (designed binder, not shown: large carriers, also: fused to maltose binding protein (MBP), order and linker not given here, also called WW-B1-MBP) [WW-B1 fused to maltose binding protein (MBP)] as the binder, how does the EC50 [4] read?
Answer: The EC50 was 76 nM.

Question: Does MADEEKLPPGWYKMWSSPGRVLYVNDITHAHQWERPSG (designed binder, not shown: large carriers, also: fused to gpIII (M13 phage display), linker not given here) [clones E1, E3, H3, C4, E4, G4 and H6, phage-displayed modified Pin1 WW domain peptide] bind [2]?
Answer: Result: no binding

Question: Does MAVEEKLPPGWYKMWSSPGRVLYVNDITHAHQWERPSG (designed binder, not shown: large carriers, also: fused to gpIII (M13 phage display), linker not given here) [clone B4, phage-displayed modified Pin1 WW domain peptide] bind [3]?
Answer: Result: binds

Question: Does MADEEKLPPGWCKFWSTAGRVIYINRITGAKQWERPSG (designed binder, not shown: large carriers, also: fused to gpIII (M13 phage display), linker not given here) [clone A1, phage-displayed modified Pin1 WW domain peptide] bind [2]?
Answer: Result: no binding

Question: What does the source list for MADEEKLPPGWAVWSPDGRLYYWNSVIVSTRWGRPSC (designed binder, not shown: large carriers, also: fused to gpIII (M13 phage display), linker not given here) [clone NP-A12, phage-displayed modified Pin1 WW domain peptide]?
Answer: binding result [1]: no binding; binding result [5]: binds

B1: WW-B1 VEGFR2 WW domain, chemically synthesised, biotinylated (linear) (designed binder)
peptide: Biotin-MADEEKLPPGWYKMWSSPGRVLYVNDITHAHRWERPSG
modifications: not fully specified
notes: Modified Pin1 WW domain; also called linear WW-B1; clone WW-B1
Question: With B1 as the binder, how does the Kd [6] read?
Answer: Its Kd is 44 nM.

Question: Does MADEEKLPPGWTVWSPNGRVYYWNSITVARQWERPSG (designed binder, not shown: large carriers, also: fused to gpIII (M13 phage display), linker not given here) [clone NP-H8, phage-displayed modified Pin1 WW domain peptide] bind [1]?
Answer: Result: no binding

Question: Does MADEEKLPPGWTVWSPNGRVYYWNSITVARQWERPSG (designed binder, not shown: large carriers, also: fused to gpIII (M13 phage display), linker not given here) [clone NP-H8, phage-displayed modified Pin1 WW domain peptide] bind [5]?
Answer: Result: binds

B2: cyclic WW-B1 peptide (Glu38 variant), cyclised through amino acids at positions 6 and 38 (designed binder)
peptide: Biotin-DEEKLPPGWYKMWSSPGRVLYVNDITHAHRWERPEG-NH2
modifications: lactam 4-35
SMILES: CC[C@H](C)[C@@H]1NC(=O)[C@H](CC(=O)O)NC(=O)[C@H](CC(N)=O)NC(=O)[C@H](C(C)C)NC(=O)[C@H](Cc2ccc(O)cc2)NC(=O)[C@H](CC(C)C)NC(=O)[C@H](C(C)C)NC(=O)[C@H](CCCNC(=N)N)NC(=O)CNC(=O)[C@@H]2CCCN2C(=O)[C@H](CO)NC(=O)[C@H](CO)NC(=O)[C@H](Cc2c[nH]c3ccccc23)NC(=O)[C@H](CCSC)NC(=O)[C@H](CCCCN)NC(=O)[C@H](Cc2ccc(O)cc2)NC(=O)[C@H](Cc2c[nH]c3ccccc23)NC(=O)CNC(=O)[C@@H]2CCCN2C(=O)[C@@H]2CCCN2C(=O)[C@H](CC(C)C)NC(=O)[C@@H](NC(=O)[C@H](CCC(=O)O)NC(=O)[C@H](CCC(=O)O)NC(=O)[C@H](CC(=O)O)NC(=O)CCCC[C@@H]2SC[C@@H]3NC(=O)N[C@@H]32)CCCCNC(=O)CC[C@@H](C(=O)NCC(N)=O)NC(=O)[C@@H]2CCCN2C(=O)[C@H](CCCNC(=N)N)NC(=O)[C@H](CCC(=O)O)NC(=O)[C@H](Cc2c[nH]c3ccccc23)NC(=O)[C@H](CCCNC(=N)N)NC(=O)[C@H](Cc2c[nH]cn2)NC(=O)[C@H](C)NC(=O)[C@H](Cc2c[nH]cn2)NC(=O)[C@H]([C@@H](C)O)NC1=O
notes: also called cyclised WW-B1
Question: For B2, which Kd [7] is on record?
Answer: The Kd was 31 nM.

Reference: patent publication US20140005126A1 (ISOGENICA, published 2014)
